The values below come from the supplement of paper PMC5998384.

Series [1] deals with HeLa Kyoto. As to the kind of experiment: melting temperature (median over replicates), in situ; higher = more thermally stable.
Series [2] deals with HeLa Kyoto. As to the kind of experiment: solubility change mitosis vs G1/S (difference of NP-40 vs SDS log2 ratios) (log2 ratio difference); higher = more soluble in mitosis.
In series [3] the test system is HeLa Kyoto. Kind of series: thermal stability score vs G1/S (z-score of summed log2 fold changes over temperatures); higher = more thermally stable than in G1/S.
For series [4], the system named is HeLa Kyoto. Kind of series: solubility in G1/S (NP-40 vs SDS abundance) (log2 ratio); higher = more soluble. The settings on record: cell cycle stage: G1/S.
Setting [5] is: cell cycle stage: early G1 (4.5 h after nocodazole release).
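For melting temperature (median over replicates), in situ in this document: HeLa Kyoto cells synchronized by double thymidine or nocodazole block, proteins quantified by TMT10plex mass spectrometry, three independent biological replicates.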
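For solubility change mitosis vs G1/S (difference of NP-40 vs SDS log2 ratios) in this document: synchronized HeLa Kyoto cells (double thymidine block for G1/S, nocodazole release for mitosis), protein amounts in NP-40 versus SDS lysates quantified by mass spectrometry, three biological replicates.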
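For solubility in G1/S (NP-40 vs SDS abundance) in this document: HeLa Kyoto cells arrested at G1/S by double thymidine block, proteins quantified by TMT10plex mass spectrometry in mild NP-40 versus SDS extracts, three biological replicates.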
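For thermal stability score vs G1/S (z-score of summed log2 fold changes over temperatures) in this document: synchronized HeLa Kyoto cells, proteins quantified by TMT10plex mass spectrometry, three biological replicates, mitosis taken 0.5 h after nocodazole release, G1/S directly after double thymidine block.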

With “MNFAEREGSKRYCIQTKHVAILCAVVVGVGLIVGLAVGLTRSCDSSGDGGPGTAPAPSHLPSSTASPSGPPAQDQDICPASEDESGQWKNFRLPDFVNPVHYDLHVKPLLEEDTYTGTVSISINLSAPTRYLWLHLRETRITRLPELKRPSGDQVQVRRCFEYKKQEYVVVEAEEELTPSSGDGLYLLTMEFAGWLNGSLVGFYRTTYTENGQVKSIVATDHEPTDARKSFPCFDEPNKKATYTISITHPKEYGALSNMPVAKEESVDDKWTRTTFEKSVPMSTYLVCFAVHQFDSVKRISNSGKPLTIYVQPEQKHTAEYAANITKSVFDYFEEYFAMNYSLPKLDKIAIPDFGTGAMENWGLITYRETNLLYDPKESASSNQQRVATVVAHELVHQWFGNIVTMDWWEDLWLNEGFASFFEFLGVNHAETDWQMRDQMLLEDVLPVQEDDSLMSSHPIIVTVTTPDEITSVFDGISYSKGSSILRMLEDWIKPENFQKGCQMYLEKYQFKNAKTSDFWAALEEASRLPVKEVMDTWTRQMGYPVLNVNGVKNITQKRFLLDPRANPSQPPSDLGYTWNIPVKWTEDNITSSVLFNRSEKEGITLNSSNPSGNAFLKINPDHIGFYRVNYEVATWDSIATALSLNHKTFSSADRASLIDDAFALARAQLLDYKVALNLTKYLKREENFLPWQRVISAVTYIISMFEDDKELYPMIEEYFQGQVKPIADSLGWNDAGDHVTKLLRSSVLGFACKMGDREALNNASSLFEQWLNGTVSLPVNLRLLVYRYGMQNSGNEISWNYTLEQYQKTSLAQEKEKLLYGLASVKNVTLLSRYLDLLKDTNLIKTQDVFTVIRYISYNSYGKNMAWNWIQLNWDYLVNRYTLNNRNLGRIVTIAEPFNTELQLWQMESFFAKYPQAGAGEKPREQVLETVKNNIEWLKQHRNTIREWFFNLLESG [ENPEP]”, the melting temperature worked out at 57.4 °C in the series with HeLa Kyoto [1] (cell cycle stage: G1/S) and 55.9 °C in the series on HeLa Kyoto [1] (cell cycle stage: mitosis). The “solubility change mitosis (log2)” value in the series with HeLa Kyoto [2] stood at 0.193. Further, the thermal stability score is -1.64 with HeLa Kyoto [3] (setting [5]) and -0.842 in the series with HeLa Kyoto [3] (cell cycle stage: mitosis). In addition, the “solubility in G1/S (log2)” value in the series with HeLa Kyoto [4] was -0.159.

As to “MNGDSRAAVVTSPPPTTAPHKERYFDRVDENNPEYLRERNMAPDLRQDFNMMEQKKRVSMILQSPAFCEELESMIQEQFKKGKNPTGLLALQQIADFMTTNVPNVYPAAPQGGMAALNMSLGMVTPVNDLRGSDSIAYDKGEKLLRCKLAAFYRLADLFGWSQLIYNHITTRVNSEQEHFLIVPFGLLYSEVTASSLVKINLQGDIVDRGSTNLGVNQAGFTLHSAIYAARPDVKCVVHIHTPAGAAVSAMKCGLLPISPEALSLGEVAYHDYHGILVDEEEKVLIQKNLGPKSKVLILRNHGLVSVGESVEEAFYYIHNLVVACEIQVRTLASAGGPDNLVLLNPEKYKAKSRSPGSPVGEGTGSPPKWQIGEQEFEALMRMLDNLGYRTGYPYRYPALREKSKKYSDVEVPASVTGYSFASDGDSGTCSPLRHSFQKQQREKTRWLNSGRGDEASEEGQNGSSPKSKTKWTKEDGHRTSTSAVPNLFVPLNTNPKEVQEMRNKIREQNLQDIKTAGPQSQVLCGVVMDRSLVQGELVTASKAIIEKEYQPHVIVSTTGPNPFTTLTDRELEEYRREVERKQKGSEENLDEAREQKEKSPPDQPAVPHPPPSTPIKLEEDLVPEPTTGDDSDAATFKPTLPDLSPDEPSEALGFPMLEKEEEAHRPPSPTEAPTEASPEPAPDPAPVAEEAAPSAVEEGAAADPGSDGSPGKSPSKKKKKFRTPSFLKKSKKKSDS [ADD1]”, the values for the melting temperature in the series with HeLa Kyoto [1] (cell cycle stage: G1/S) and in the series on HeLa Kyoto [1] (cell cycle stage: mitosis) were 55.2 °C and 55.1 °C, respectively. Also, the “solubility change mitosis (log2)” value in the series on HeLa Kyoto [2] came out at 0.0666. The thermal stability score in the series on HeLa Kyoto [3] (setting [5]) was -4.45; in the series on HeLa Kyoto [3] (cell cycle stage: mitosis) it was -3.29. The “solubility in G1/S (log2)” value in the series with HeLa Kyoto [4] was 0.119.

With “MNGKRPAEPGPARVGKKGKKEVMAEFSDAVTEETLKKQVAEAWSRRTPFSHEVIVMDMDPFLHCVIPNFIQSQDFLEGLQKELMNLDFHEKYNDLYKFQQSDDLKKRREPHISTLRKILFEDFRSWLSDISKIDLESTIDMSCAKYEFTDALLCHDDELEGRRIAFILYLVPPWDRSMGGTLDLYSIDEHFQPKQIVKSLIPSWNKLVFFEVSPVSFHQVSEVLSEEKSRLSISGWFHGPSLTRPPNYFEPPIPRSPHIPQDHEILYDWINPTYLDMDYQVQIQEEFEESSEILLKEFLKPEKFTKVCEALEHGHVEWSSRGPPNKRFYEKAEESKLPEILKECMKLFRSEALFLLLSNFTGLKLHFLAPSEEDEMNDKKEAETTDITEEGTSHSPPEPENNQMAISNNSQQSNEQTDPEPEENETKKESSVPMCQGELRHWKTGHYTLIHDHSKAEFALDLILYCGCEGWEPEYGGFTSYIAKGEDEELLTVNPESNSLALVYRDRETLKFVKHINHRSLEQKKTFPNRTGFWDFSFIYYE [OGFOD1]”, the melting temperature turned out to be 53.1 °C with HeLa Kyoto [1] (cell cycle stage: G1/S) and 53.6 °C with HeLa Kyoto [1] (cell cycle stage: mitosis). Also, the “solubility change mitosis (log2)” value in the series on HeLa Kyoto [2] is -0.151. Further, the thermal stability score in the series with HeLa Kyoto [3] (setting [5]) stood at 1.93; with HeLa Kyoto [3] (cell cycle stage: mitosis), 0.186. Further, in the series on HeLa Kyoto [4], the “solubility in G1/S (log2)” value is -0.0197.

With “MNGRADFREPNAEVPRPIPHIGPDYIPTEEERRVFAECNDESFWFRSVPLAATSMLITQGLISKGILSSHPKYGSIPKLILACIMGYFAGKLSYVKTCQEKFKKLENSPLGEALRSGQARRSSPPGHYYQKSKYDSSVSGQSSFVTSPAADNIEMLPHYEPIPFSSSMNESAPTGITDHIVQGPDPNLEESPKRKNITYEELRNKNRESYEVSLTQKTDPSVRPMHERVPKKEVKVNKYGDTWDE [OCIAD1]”, the melting temperature in the series with HeLa Kyoto [1] (cell cycle stage: G1/S) worked out at 55.9 °C; with HeLa Kyoto [1] (cell cycle stage: mitosis) it was 53.1 °C. The “solubility change mitosis (log2)” value in the series on HeLa Kyoto [2] was 0.225. Besides, the thermal stability score in the series with HeLa Kyoto [3] (setting [5]) is -1.09; with HeLa Kyoto [3] (cell cycle stage: mitosis), -4.47. Also, in the series with HeLa Kyoto [4], the “solubility in G1/S (log2)” value was 0.219.

As for “MNHSERFVFIAEWYDPNASLLRRYELLFYPGDGSVEMHDVKNHRTFLKRTKYDNLHLEDLFIGNKVNVFSRQLVLIDYGDQYTARQLGSRKEKTLALIKPDAISKAGEIIEIINKAGFTITKLKMMMLSRKEALDFHVDHQSRPFFNELIQFITTGPIIAMEILRDDAICEWKRLLGPANSGVARTDASESIRALFGTDGIRNAAHGPDSFASAAREMELFFPSSGGCGPANTAKFTNCTCCIVKPHAVSEGLLGKILMAIRDAGFEISAMQMFNMDRVNVEEFYEVYKGVVTEYHDMVTEMYSGPCVAMEIQQNNATKTFREFCGPADPEIARHLRPGTLRAIFGKTKIQNAVHCTDLPEDGLLEVQYFFKILDN [NME7]”, the melting temperature was found to be 48.9 °C with HeLa Kyoto [1] (cell cycle stage: G1/S) and 48.8 °C with HeLa Kyoto [1] (cell cycle stage: mitosis). In addition, the “solubility change mitosis (log2)” value in the series with HeLa Kyoto [2] amounted to 0.0736. Further, the thermal stability score with HeLa Kyoto [3] (setting [5]) was found to be 0.587; with HeLa Kyoto [3] (cell cycle stage: mitosis), 0.668. Besides, the “solubility in G1/S (log2)” value with HeLa Kyoto [4] was -0.32.
